# Assay results from patent US20170247463A1.
# Key:
# [1] = target: hFcγRIIa131H; experiment: -
# [2] = target: hFcγRIIIa158V; experiment: -; range printed as 0.20~0.28
# [3] = target: hFcγRI; experiment: -; range printed as 0.12~0.28
substance,measurement,setting,value
IgG 1,Kd,[1],850 nM
same,Kd,[2],200 nM
same,Kd,[3],0.12 nM
